Experiment [1] addresses Pfs230 domain 1 (Pfs230D1), wild-type, 6xHis, from Expi293 cells (P. falciparum, UniProt P68874). As to the kind of experiment: BLI.
Experiment [2] deals with Pfs230D1 G605S variant, 6xHis, from Expi293 cells (P. falciparum, UniProt P68874, G605S). As to the kind of experiment: BLI.
Experiment [3] concerns the target Pfs230D1 G605R variant, 6xHis, from Expi293 cells (P. falciparum, UniProt P68874, G605R). As to the kind of experiment: BLI.
In experiment [4] the target is Pfs230D1 D714N variant, 6xHis, from Expi293 cells (P. falciparum, UniProt P68874). Briefly: BLI.
The target of experiment [5] is Pfs230D1D2 (first two 6-Cys domains of Pfs230), 6xHis (Plasmodium falciparum 3D7, UniProt P68874). Briefly: crystal structure.
Another experiment deals with Biotinylated Pfs230D1 (Plasmodium falciparum 3D7, UniProt P68874, biotin (site not stated)). Briefly: BLI.

Data on three molecules can be found in paper PMC9989938 (Immunity, 2023).

B1: 230AL-37 IgG (antibody, V domains shown)
VH: QVQLVESGGGVVQPGGSLRLSCTASGLIFNKYGIYWVRQAPGKGLEWVAFIRYDGTNQFYADSVKGRFTISRDNSKNKVYLQMNSLRAEDTALYYCAKDRGSIIVFDHWGQGTLVTVSS
VL: EIVLTQSPATLSLSPGERVTLSCRASQAVGIYLAWYQQKPGQAPRLLIYHVSKRDTGVPDRFSGSGSGTDFTLTISSLEPEDFAVYYCQQHRNWPPITFGQGTRLEIK
Turning to B1, the dissociation constant Kd in experiment [1] came to 0.34 nM; in experiment [2], 0.65 nM; in experiment [3], 5.01 nM; in experiment [4], 15 nM. For the same molecule, the off-rate (koff) in experiment [1] worked out at 0.000181 s⁻¹; in experiment [2], 0.000147 s⁻¹; in experiment [3], 0.000426 s⁻¹; in experiment [4] it was 0.00422 s⁻¹. Besides, the association rate constant (kon) in experiment [1] was determined as 538000 M⁻¹ s⁻¹; in experiment [2] it was 214000 M⁻¹ s⁻¹; in experiment [3], 85100 M⁻¹ s⁻¹; in experiment [4], 291000 M⁻¹ s⁻¹.

B2: 230AL-37 scFv (scFv, V domains shown)
VH: B1 VH
VL: B1 VL
On to B2, for which the binding result in experiment [5] is “binds”.

B3: 230AS-73 scFv (scFv, V domains shown)
VH: QVQLQQWGAGLLKPSETLSLTCAVSGASFSGYSWTWIRQSPGKGLEWIGEIDYRGSTNYNPSLKSRVTMSVDTPKNQFSLNLTSLTAADTAIYYCAKGYGGVTLVRGAKINWFDPWGQGTLVTVSS
VL: EIVLTQSPGTLSLSPGERATLSCRASQSVTSRYLAWYQQKPGQAPRLLIFGASSRATGIPDRFSGSGSGTDFTLTISRLEPEDFAVYFCQQYAKSPWTFGQGTKVEIK
Take B3: the binding result (in experiment [5]; with Biotinylated Pfs230D1) was “binds” throughout.
